Experimental data published in patent US20160185832A1 (University of Pennsylvania, published 2016).

B1: GFP fusion of CEP290 aa 1695-1966 (region M) (other)
chain: DQSQKESQCLKSELQAQKEANSRAPTTTMRNLVERLKSQLALKEKQQKALSRALLELRAEMTAAAEERIISATSQKEAHLNVQQIVDRHTRELKTQVEDLNENLLKLKEALKTSKNRENSLTDNLNDLNNELQKKQKAYNKILREKEEIDQENDELKRQIKRLTSGLQGKPLTDNKQSLIEELQRKVKKLENQLEGKVEEVDLKPMKEKNAKEELIRWEEGKKWQAKIEGIRNKLKEKEGEVFTLTKQLNTLKDLFAKADKEKLTLQRKLKT
notes: Also a construct without both termini; also called CEP290 region M alone; truncation M (GFP fusion); not shown: N-terminal GFP tag from pcDNA-DEST53 (Gateway)
B2: GFP fusion of CEP290 aa 580-2479 (other)
chain: TENISQGDRISERKLDLLSLKNMSEAQSKNEFLSRELIEKERDLERSRTVIAKFQNKLKELVEENKQLEEGMKEILQAIKEMQKDPDVKGGETSLIIPSLERLVNAIESKNAEGIFDASLHLKAQVDQLTGRNEELRQELRESRKEAINYSQQLAKANLKIDHLEKETSLLRQSEGSNVVFKGIDLPDGIAPSSASIINSQNEYLIHLLQELENKEKKLKNLEDSLEDYNRKFAVIRHQQSLLYKEYLSEKETWKTESKTIKEEKRKLEDQVQQDAIKVKEYNNLLNALQMDSDEMKKILAENSRKITVLQVNEKSLIRQYTTLVELERQLRKENEKQKNELLSMEAEVCEKIGCLQRFKEMAIFKIAALQKVVDNSVSLSELELANKQYNELTAKYRDILQKDNMLVQRTSNLEHLECENISLKEQVESINKELEITKEKLHTIEQAWEQETKLGNESSMDKAKKSITNSDIVSISKKITMLEMKELNERQRAEHCQKMYEHLRTSLKQMEERNFELETKFAELTKINLDAQKVEQMLRDELADSVSKAVSDADRQRILELEKNEMELKVEVSKLREISDIARRQVEILNAQQQSRDKEVESLRMQLLDYQAQSDEKSLIAKLHQHNVSLQLSEATALGKLESITSKLQKMEAYNLRLEQKLDEKEQALYYARLEGRNRAKHLRQTIQSLRRQFSGALPLAQQEKFSKTMIQLQNDKLKIMQEMKNSQQEHRNMENKTLEMELKLKGLEELISTLKDTKGAQKVINWHMKIEELRLQELKLNRELVKDKEEIKYLNNIISEYERTISSLEEEIVQQNKFHEERQMAWDQREVDLERQLDIFDRQQNEILNAAQKFEEATGSIPDPSLPLPNQLEIALRKIKENIRIILETRATCKSLEEKLKEKESALRLAEQNILSRDKVINELRLRLPATAEREKLIAELGRKEMEPKSHHTLKIAHQTIANMQARLNQKEEVLKKYQRLLEKAREEQREIVKKHEEDLHILHHRLELQADSSLNKFKQTAWDLMKQSPTPVPTNKHFIRLAEMEQTVAEQDDSLSSLLVKLKKVSQDLERQREITELKVKEFENIKLQLQENHEDEVKKVKAEVEDLKYLLDQSQKESQCLKSELQAQKEANSRAPTTTMRNLVERLKSQLALKEKQQKALSRALLELRAEMTAAAEERIISATSQKEAHLNVQQIVDRHTRELKTQVEDLNENLLKLKEALKTSKNRENSLTDNLNDLNNELQKKQKAYNKILREKEEIDQENDELKRQIKRLTSGLQGKPLTDNKQSLIEELQRKVKKLENQLEGKVEEVDLKPMKEKNAKEELIRWEEGKKWQAKIEGIRNKLKEKEGEVFTLTKQLNTLKDLFAKADKEKLTLQRKLKTTGMTVDQVLGIRALESEKELEELKKRNLDLENDILYMRAHQALPRDSVVEDLHLQNRYLQEKLHALEKQFSKDTYSKPSISGIESDDHCQREQELQKENLKLSSENIELKFQLEQANKDLPRLKNQVRDLKEMCEFLKKEKAEVQRKLGHVRGSGRSGKTIPELEKTIGLMKKVVEKVQRENEQLKKASGILTSEKMANIEQENEKLKAELEKLKAHLGHQLSMHYESKTKGTEKIIAENERLRKELKKETDAAEKLRIAKNNLEILNEKMTVQLEETGKRLQFAESRGPQLEGADSKSWKSIVVTRMYETKLKELETDIAKKNQSITDLKQLVKEATEREQKVNKYNEDLEQQIKILKHVPEGAETEQGLKRELQVLRLANHQLDKEKAELIHQIEANKDQSGAESTIPDADQLKEKIKDLETQLKMSDLEKQHLKEEIKKLKKELENFDPSFFEEIEDLKYNYKEEVKKNILLEEKVKKLSEQLGVELTSPVAASEEFEDEEESPVNFPIY
notes: The text says only 'lacking the N-terminus'; also called truncation lacking the N-terminus; C-terminal fragment of CEP290 (aa 580 to 2479); not shown: N-terminal GFP tag from pcDNA-DEST53 (Gateway)
B3: GFP fusion of CEP290 aa 580-1966 (other)
chain: TENISQGDRISERKLDLLSLKNMSEAQSKNEFLSRELIEKERDLERSRTVIAKFQNKLKELVEENKQLEEGMKEILQAIKEMQKDPDVKGGETSLIIPSLERLVNAIESKNAEGIFDASLHLKAQVDQLTGRNEELRQELRESRKEAINYSQQLAKANLKIDHLEKETSLLRQSEGSNVVFKGIDLPDGIAPSSASIINSQNEYLIHLLQELENKEKKLKNLEDSLEDYNRKFAVIRHQQSLLYKEYLSEKETWKTESKTIKEEKRKLEDQVQQDAIKVKEYNNLLNALQMDSDEMKKILAENSRKITVLQVNEKSLIRQYTTLVELERQLRKENEKQKNELLSMEAEVCEKIGCLQRFKEMAIFKIAALQKVVDNSVSLSELELANKQYNELTAKYRDILQKDNMLVQRTSNLEHLECENISLKEQVESINKELEITKEKLHTIEQAWEQETKLGNESSMDKAKKSITNSDIVSISKKITMLEMKELNERQRAEHCQKMYEHLRTSLKQMEERNFELETKFAELTKINLDAQKVEQMLRDELADSVSKAVSDADRQRILELEKNEMELKVEVSKLREISDIARRQVEILNAQQQSRDKEVESLRMQLLDYQAQSDEKSLIAKLHQHNVSLQLSEATALGKLESITSKLQKMEAYNLRLEQKLDEKEQALYYARLEGRNRAKHLRQTIQSLRRQFSGALPLAQQEKFSKTMIQLQNDKLKIMQEMKNSQQEHRNMENKTLEMELKLKGLEELISTLKDTKGAQKVINWHMKIEELRLQELKLNRELVKDKEEIKYLNNIISEYERTISSLEEEIVQQNKFHEERQMAWDQREVDLERQLDIFDRQQNEILNAAQKFEEATGSIPDPSLPLPNQLEIALRKIKENIRIILETRATCKSLEEKLKEKESALRLAEQNILSRDKVINELRLRLPATAEREKLIAELGRKEMEPKSHHTLKIAHQTIANMQARLNQKEEVLKKYQRLLEKAREEQREIVKKHEEDLHILHHRLELQADSSLNKFKQTAWDLMKQSPTPVPTNKHFIRLAEMEQTVAEQDDSLSSLLVKLKKVSQDLERQREITELKVKEFENIKLQLQENHEDEVKKVKAEVEDLKYLLDQSQKESQCLKSELQAQKEANSRAPTTTMRNLVERLKSQLALKEKQQKALSRALLELRAEMTAAAEERIISATSQKEAHLNVQQIVDRHTRELKTQVEDLNENLLKLKEALKTSKNRENSLTDNLNDLNNELQKKQKAYNKILREKEEIDQENDELKRQIKRLTSGLQGKPLTDNKQSLIEELQRKVKKLENQLEGKVEEVDLKPMKEKNAKEELIRWEEGKKWQAKIEGIRNKLKEKEGEVFTLTKQLNTLKDLFAKADKEKLTLQRKLKT
notes: The text says only 'lacking both termini'; also called truncation lacking both termini; construct lacking both the N- and C-termini; not shown: N-terminal GFP tag from pcDNA-DEST53 (Gateway)

What was measured:
[1] = molecular target: microtubule network of cultured human cells (hTERT-RPE1, 293T) (human, UniProt P68363 1-451; P07437 1-444); experiment: cell-based or functional assay
Chain of microtubule network of cultured human cells (hTERT-RPE1, 293T) (P68363 whole entry, chain 1 of 2): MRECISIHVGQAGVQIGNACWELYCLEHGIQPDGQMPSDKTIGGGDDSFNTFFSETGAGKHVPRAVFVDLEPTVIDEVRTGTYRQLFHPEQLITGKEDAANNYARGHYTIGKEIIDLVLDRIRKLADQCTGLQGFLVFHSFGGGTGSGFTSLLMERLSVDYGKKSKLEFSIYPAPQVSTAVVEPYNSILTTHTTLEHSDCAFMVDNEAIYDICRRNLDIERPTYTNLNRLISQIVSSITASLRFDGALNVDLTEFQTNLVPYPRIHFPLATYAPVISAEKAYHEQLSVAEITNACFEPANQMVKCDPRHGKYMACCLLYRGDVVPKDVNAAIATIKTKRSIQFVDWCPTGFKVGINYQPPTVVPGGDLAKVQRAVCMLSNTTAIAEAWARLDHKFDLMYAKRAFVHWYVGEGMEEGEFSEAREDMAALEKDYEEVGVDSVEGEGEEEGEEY
Chain of microtubule network of cultured human cells (hTERT-RPE1, 293T) (P07437 whole entry, chain 2 of 2): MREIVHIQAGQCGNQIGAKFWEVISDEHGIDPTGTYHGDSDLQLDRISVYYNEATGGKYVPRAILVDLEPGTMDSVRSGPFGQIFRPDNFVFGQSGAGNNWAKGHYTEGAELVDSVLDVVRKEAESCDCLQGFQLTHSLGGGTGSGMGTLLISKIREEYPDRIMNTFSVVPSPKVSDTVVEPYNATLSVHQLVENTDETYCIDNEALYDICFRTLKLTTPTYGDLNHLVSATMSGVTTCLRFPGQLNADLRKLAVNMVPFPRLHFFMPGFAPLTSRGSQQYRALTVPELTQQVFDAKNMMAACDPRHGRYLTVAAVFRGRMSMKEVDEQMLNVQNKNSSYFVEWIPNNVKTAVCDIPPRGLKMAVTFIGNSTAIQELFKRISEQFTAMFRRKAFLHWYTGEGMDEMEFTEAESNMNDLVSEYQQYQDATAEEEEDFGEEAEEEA

[2] = molecular target: T1, pure, pre-polymerized, taxol-stabilized microtubules of bovine tubulin (Cytoskeleton) (bovine, UniProt P81947 1-451; Q6B856 1-445, limits assumed); experiment: in vitro microtubule co-sedimentation, percent of construct in the microtubule pellet (FIG. 4D)
T1 construct: Polymer of alpha/beta tubulin dimers, polymerized with GTP and stabilized with 10 µM taxol; also called MT; MTs
T1 sequence (P81947 whole entry, chain 1 of 2): as the sequence (P68363 whole entry, chain 1 of 2) above
T1 sequence (Q6B856 whole entry, chain 2 of 2): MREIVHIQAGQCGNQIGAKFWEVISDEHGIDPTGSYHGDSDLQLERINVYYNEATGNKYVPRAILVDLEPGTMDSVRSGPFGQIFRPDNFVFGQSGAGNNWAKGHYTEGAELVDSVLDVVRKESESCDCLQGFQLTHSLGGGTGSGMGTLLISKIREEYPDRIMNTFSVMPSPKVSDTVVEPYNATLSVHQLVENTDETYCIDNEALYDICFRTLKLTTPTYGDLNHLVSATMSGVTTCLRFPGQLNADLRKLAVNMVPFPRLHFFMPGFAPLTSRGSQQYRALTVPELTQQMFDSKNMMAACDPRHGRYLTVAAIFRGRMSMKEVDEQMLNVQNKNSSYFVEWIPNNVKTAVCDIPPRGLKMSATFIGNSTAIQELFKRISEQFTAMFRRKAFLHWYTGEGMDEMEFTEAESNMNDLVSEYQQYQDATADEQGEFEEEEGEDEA
Description: Crude TNT T7 reaction products were diluted 1:1 in BRB80 supplemented with 1 mM GTP and 10 μM taxol. The diluted products were then incubated at 30° C. for 30 minutes in either the presence or absence of pure, pre-polymerized microtubules. Reactions were then centrifuged through a 40% sucrose cushion at 48,000×g for 30 minutes, the supernatant was collected, and the pellet washed once with warm BRB80 and resuspended in 1×SDS PAGE sample buffer. Both fractions were subjected to SDS-PAGE and transferred to nitrocellulose. The presence of tubulin in the pellets was confirmed by Ponceau staining, and GFP-tagged CEP290 constructs were detected by immunoblotting.

Row | Binder | percent of transfected cells with increased microtubule acetylation and bundling [1] [%] | percent associated with microtubules [2] [%] | percent of transfected hTERT-RPE1 cells with a fibrillar localization pattern [1] [%]
1 | B1 | ~75 | ~100 | 
2 | B2 | ~40 | < 50 | ~20
3 | B3 | ~75 | ~100 | ~80
